± gives the standard deviation of the averaged measurements.
B1: library; a variant is named by its letters at N, in order (parent)
chain: GCUGUCACCGAGAAACUGUGAAGUAUAUCUUAAACCUGGGCACUUAAAAGAUAUAUGGAGUUAGUAGUGCAACCUGCUCGGUCUGAUGAGUCCNNNNNNGGACGAAACAGC

Tests used:
cyclic di-GMP [1] = variants of: B1; test: normalized RNA/DNA level without ligand (relative to sTRSVctl = 100) (log10 (% of sTRSVctl)); HEK293T; ligand: cyclic di-GMP (c-di-GMP-II aptamer); higher = less ribozyme self-cleavage, higher mRNA level; conditions: reporter: mCherry (pCS4076), ligand present: no
Summary of the method: (§1)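 HEK293T cells were transfected with library plasmids carrying ribozyme switches linked to an mCherry reporter, or an eGFP reporter in some ligand experiments, at 4 µg per well of a 6-well plate, with any ligand added 1 h beforehand. After 72 h, total RNA was extracted with EDTA, reverse-transcribed, amplified, barcoded and sequenced. RNA level was defined as RNA reads over DNA reads, normalized to a spiked-in non-cleaving sequence or to the top-ranked sequences. That value was multiplied by 100 and converted to log10, the top set was 25 sequences, and only sequences with ≥100 DNA reads were retained.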

cyclic di-GMP [2] = variants of: B1; test: normalized RNA/DNA level with ligand (relative to sTRSVctl = 100) (log10 (% of sTRSVctl)); HEK293T; ligand: cyclic di-GMP (c-di-GMP-II aptamer); ligand concentration (+) RNA-Seq: 1 mM; higher = less ribozyme self-cleavage, higher mRNA level; conditions: reporter: mCherry (pCS4076), ligand present: yes
Summary of the method: as §1

Variant	normalized RNA/DNA level without ligand (log10) (cyclic di-GMP [1])	normalized RNA/DNA level with ligand (log10) (cyclic di-GMP [2])
GCUGUCACCGAGAAACUGUGAAGUAUAUCUUAAACCUGGGCACUUAAAAGAUAUAUGGAGUUAGUAGUGCAACCUGCUCGGUCUGAUGAGUCCUUAAGCGGACGAAACAGC [UUAAGC]	1.734 ± 0.0092	1.85 ± 0.078
GCUGUCACCGAGAAACUGUGAAGUAUAUCUUAAACCUGGGCACUUAAAAGAUAUAUGGAGUUAGUAGUGCAACCUGCUCGGUCUGAUGAGUCCGCUUAUGGACGAAACAGC [GCUUAU]	1.6 ± 0.017	1.76 ± 0.13
GCUGUCACCGAGAAACUGUGAAGUAUAUCUUAAACCUGGGCACUUAAAAGAUAUAUGGAGUUAGUAGUGCAACCUGCUCGGUCUGAUGAGUCCCCAGGGGGACGAAACAGC [CCAGGG]	1.52 ± 0.025	1.77 ± 0.12
GCUGUCACCGAGAAACUGUGAAGUAUAUCUUAAACCUGGGCACUUAAAAGAUAUAUGGAGUUAGUAGUGCAACCUGCUCGGUCUGAUGAGUCCGCUGCUGGACGAAACAGC [GCUGCU]	1.682 ± 0.0098	1.8 ± 0.11
GCUGUCACCGAGAAACUGUGAAGUAUAUCUUAAACCUGGGCACUUAAAAGAUAUAUGGAGUUAGUAGUGCAACCUGCUCGGUCUGAUGAGUCCUCGCAUGGACGAAACAGC [UCGCAU]	1.572 ± 0.0067	1.76 ± 0.092
GCUGUCACCGAGAAACUGUGAAGUAUAUCUUAAACCUGGGCACUUAAAAGAUAUAUGGAGUUAGUAGUGCAACCUGCUCGGUCUGAUGAGUCCCCUGGAGGACGAAACAGC [CCUGGA]	1.56 ± 0.052	1.76 ± 0.069
GCUGUCACCGAGAAACUGUGAAGUAUAUCUUAAACCUGGGCACUUAAAAGAUAUAUGGAGUUAGUAGUGCAACCUGCUCGGUCUGAUGAGUCCACAUGCGGACGAAACAGC [ACAUGC]	1.59 ± 0.049	1.77 ± 0.053
GCUGUCACCGAGAAACUGUGAAGUAUAUCUUAAACCUGGGCACUUAAAAGAUAUAUGGAGUUAGUAGUGCAACCUGCUCGGUCUGAUGAGUCCCAUCCUGGACGAAACAGC [CAUCCU]	1.6 ± 0.03	1.77 ± 0.1
GCUGUCACCGAGAAACUGUGAAGUAUAUCUUAAACCUGGGCACUUAAAAGAUAUAUGGAGUUAGUAGUGCAACCUGCUCGGUCUGAUGAGUCCUCUAAGGGACGAAACAGC [UCUAAG]	1.64 ± 0.079	1.82 ± 0.072
GCUGUCACCGAGAAACUGUGAAGUAUAUCUUAAACCUGGGCACUUAAAAGAUAUAUGGAGUUAGUAGUGCAACCUGCUCGGUCUGAUGAGUCCGAGGUCGGACGAAACAGC [GAGGUC]	1.68 ± 0.042	1.82 ± 0.11
GCUGUCACCGAGAAACUGUGAAGUAUAUCUUAAACCUGGGCACUUAAAAGAUAUAUGGAGUUAGUAGUGCAACCUGCUCGGUCUGAUGAGUCCGUGGUUGGACGAAACAGC [GUGGUU]	1.617 ± 0.0057	1.78 ± 0.13
GCUGUCACCGAGAAACUGUGAAGUAUAUCUUAAACCUGGGCACUUAAAAGAUAUAUGGAGUUAGUAGUGCAACCUGCUCGGUCUGAUGAGUCCGGUAUUGGACGAAACAGC [GGUAUU]	1.61 ± 0.056	1.8 ± 0.11
GCUGUCACCGAGAAACUGUGAAGUAUAUCUUAAACCUGGGCACUUAAAAGAUAUAUGGAGUUAGUAGUGCAACCUGCUCGGUCUGAUGAGUCCUAGCUUGGACGAAACAGC [UAGCUU]	1.68 ± 0.055	1.81 ± 0.073
GCUGUCACCGAGAAACUGUGAAGUAUAUCUUAAACCUGGGCACUUAAAAGAUAUAUGGAGUUAGUAGUGCAACCUGCUCGGUCUGAUGAGUCCAUGAAGGGACGAAACAGC [AUGAAG]	1.52 ± 0.13	1.67 ± 0.064
GCUGUCACCGAGAAACUGUGAAGUAUAUCUUAAACCUGGGCACUUAAAAGAUAUAUGGAGUUAGUAGUGCAACCUGCUCGGUCUGAUGAGUCCAAGCCGGGACGAAACAGC [AAGCCG]	1.732 ± 0.0043	1.82 ± 0.069
GCUGUCACCGAGAAACUGUGAAGUAUAUCUUAAACCUGGGCACUUAAAAGAUAUAUGGAGUUAGUAGUGCAACCUGCUCGGUCUGAUGAGUCCACUACGGGACGAAACAGC [ACUACG]	1.61 ± 0.022	1.81 ± 0.1
GCUGUCACCGAGAAACUGUGAAGUAUAUCUUAAACCUGGGCACUUAAAAGAUAUAUGGAGUUAGUAGUGCAACCUGCUCGGUCUGAUGAGUCCUCUCGUGGACGAAACAGC [UCUCGU]	1.69 ± 0.037	1.85 ± 0.075
GCUGUCACCGAGAAACUGUGAAGUAUAUCUUAAACCUGGGCACUUAAAAGAUAUAUGGAGUUAGUAGUGCAACCUGCUCGGUCUGAUGAGUCCGCUUGUGGACGAAACAGC [GCUUGU]	1.577 ± 0.005	1.75 ± 0.15
GCUGUCACCGAGAAACUGUGAAGUAUAUCUUAAACCUGGGCACUUAAAAGAUAUAUGGAGUUAGUAGUGCAACCUGCUCGGUCUGAUGAGUCCCCGUACGGACGAAACAGC [CCGUAC]	1.62 ± 0.027	1.75 ± 0.11
GCUGUCACCGAGAAACUGUGAAGUAUAUCUUAAACCUGGGCACUUAAAAGAUAUAUGGAGUUAGUAGUGCAACCUGCUCGGUCUGAUGAGUCCGGCAGUGGACGAAACAGC [GGCAGU]	1.76 ± 0.071	1.849 ± 0.0031
GCUGUCACCGAGAAACUGUGAAGUAUAUCUUAAACCUGGGCACUUAAAAGAUAUAUGGAGUUAGUAGUGCAACCUGCUCGGUCUGAUGAGUCCACGAUAGGACGAAACAGC [ACGAUA]	1.45 ± 0.05	1.68 ± 0.12
GCUGUCACCGAGAAACUGUGAAGUAUAUCUUAAACCUGGGCACUUAAAAGAUAUAUGGAGUUAGUAGUGCAACCUGCUCGGUCUGAUGAGUCCAUGCUAGGACGAAACAGC [AUGCUA]	1.57 ± 0.034	1.77 ± 0.06
GCUGUCACCGAGAAACUGUGAAGUAUAUCUUAAACCUGGGCACUUAAAAGAUAUAUGGAGUUAGUAGUGCAACCUGCUCGGUCUGAUGAGUCCGUCUUUGGACGAAACAGC [GUCUUU]	1.7 ± 0.033	1.83 ± 0.092
GCUGUCACCGAGAAACUGUGAAGUAUAUCUUAAACCUGGGCACUUAAAAGAUAUAUGGAGUUAGUAGUGCAACCUGCUCGGUCUGAUGAGUCCAAUGACGGACGAAACAGC [AAUGAC]	1.63 ± 0.018	1.79 ± 0.081
GCUGUCACCGAGAAACUGUGAAGUAUAUCUUAAACCUGGGCACUUAAAAGAUAUAUGGAGUUAGUAGUGCAACCUGCUCGGUCUGAUGAGUCCCGCCGGGGACGAAACAGC [CGCCGG]	1.711 ± 0.011	1.85 ± 0.11
GCUGUCACCGAGAAACUGUGAAGUAUAUCUUAAACCUGGGCACUUAAAAGAUAUAUGGAGUUAGUAGUGCAACCUGCUCGGUCUGAUGAGUCCUUUGACGGACGAAACAGC [UUUGAC]	1.71 ± 0.03	1.87 ± 0.11

Reference: the supplement of paper PMC6757056
